Source: patent publication US20160199455

Tested on: T1, rBDD FVIII (recombinant B-domain deleted FVIII, REFACTO)
T1 sequence: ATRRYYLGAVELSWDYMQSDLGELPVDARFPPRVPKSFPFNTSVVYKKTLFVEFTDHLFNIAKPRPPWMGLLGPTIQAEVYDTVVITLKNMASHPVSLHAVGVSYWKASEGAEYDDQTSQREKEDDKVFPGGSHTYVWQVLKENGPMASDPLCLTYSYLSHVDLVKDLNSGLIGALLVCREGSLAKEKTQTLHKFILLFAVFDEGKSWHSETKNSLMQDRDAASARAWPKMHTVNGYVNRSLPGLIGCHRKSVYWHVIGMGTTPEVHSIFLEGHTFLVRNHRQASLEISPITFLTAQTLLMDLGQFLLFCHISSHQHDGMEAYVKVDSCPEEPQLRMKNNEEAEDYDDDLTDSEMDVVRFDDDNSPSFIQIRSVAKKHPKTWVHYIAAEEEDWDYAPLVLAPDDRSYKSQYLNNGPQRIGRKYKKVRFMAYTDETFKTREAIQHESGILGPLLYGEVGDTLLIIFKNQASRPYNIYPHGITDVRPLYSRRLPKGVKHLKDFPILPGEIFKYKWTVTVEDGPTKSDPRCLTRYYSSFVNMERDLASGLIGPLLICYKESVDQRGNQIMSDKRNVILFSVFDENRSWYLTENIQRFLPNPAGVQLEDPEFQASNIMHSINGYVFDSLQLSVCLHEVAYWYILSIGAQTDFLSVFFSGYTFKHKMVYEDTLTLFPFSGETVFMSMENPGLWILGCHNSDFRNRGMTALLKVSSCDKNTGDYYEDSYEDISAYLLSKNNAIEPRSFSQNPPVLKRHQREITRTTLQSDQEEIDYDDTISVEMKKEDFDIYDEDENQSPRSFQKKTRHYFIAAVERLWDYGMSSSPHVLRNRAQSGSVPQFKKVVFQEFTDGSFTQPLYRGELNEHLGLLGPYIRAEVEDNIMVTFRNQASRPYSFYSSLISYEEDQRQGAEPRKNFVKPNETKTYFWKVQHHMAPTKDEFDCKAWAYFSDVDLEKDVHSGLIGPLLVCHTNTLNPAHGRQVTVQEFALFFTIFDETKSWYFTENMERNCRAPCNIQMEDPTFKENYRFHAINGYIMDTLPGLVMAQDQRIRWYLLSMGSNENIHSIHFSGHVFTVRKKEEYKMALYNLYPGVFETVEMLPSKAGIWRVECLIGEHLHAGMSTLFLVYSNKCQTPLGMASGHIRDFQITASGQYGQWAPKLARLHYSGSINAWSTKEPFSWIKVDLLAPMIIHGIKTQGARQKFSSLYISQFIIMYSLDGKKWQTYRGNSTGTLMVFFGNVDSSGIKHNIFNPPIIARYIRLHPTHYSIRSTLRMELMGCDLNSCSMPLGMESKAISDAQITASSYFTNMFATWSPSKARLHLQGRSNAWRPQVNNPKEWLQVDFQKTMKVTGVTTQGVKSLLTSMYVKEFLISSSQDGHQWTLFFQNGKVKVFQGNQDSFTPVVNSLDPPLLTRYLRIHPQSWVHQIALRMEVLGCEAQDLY

Factor X (FX)
Km (activation of Factor X by the Xase complex): 0.051 µM | Vmax (activation of Factor X by the Xase complex): 73.5 nM/min

activated Factor IX (FIXa)
Vmax (FXa generation, varying FIXa): 4 nM/min
